{"source": "paper PMC10043284", "target": "PANX2EM (residues 1-372 of human pannexin 2 with a C-terminal thermostabilized BRIL) (UniProt Q96RD6)", "assay": "cryo-EM structure; purified PANX2EM (~6 mg/ml) in 20 mM Tris pH 8.0, 150 mM NaCl, 40 uM GDN, with 1 mM Fluorinated Fos-Choline 8; single-particle analysis, C7 symmetry, 3.92 Å; C1 reconstruction aligned with it", "data": [{"substance": "PANX2EM (residues 1-372 of human pannexin 2 with a C-terminal thermostabilized BRIL) (from UniProt Q96RD6-3 1-372)", "values": [{"measurement": "stoichiometry N", "result": 7}]}]}
